Where two headings read alike, the source gives them in different places.
How the values were obtained:
[1] = system: AR42J xenografts; assay: SPECT/CT imaging with blocking by unlabeled peptide; format: in vivo, mice; conditions: 11.1 MBq, 30 nmol unlabeled PSC-PEG2-TOC
Protocol: Serial SPECT/CT imaging was conducted at 3 h and 24 h post-administration. The imaging study was performed at the University of Iowa Small Animal Imaging Core using an INVEON trimodality SPECT/positron emission tomography (PET)/CT scanner (Siemens Preclinical, Knoxville, TN) equipped with medium-energy (0.3 mm) pinhole collimators. Data were reconstructed using three-dimensional ordered-subsets expectation maximization (OSEM-3D) algorithm with eight iterations and six subsets. Post-reconstruction images were smoothed with a 3D Gaussian kernel. Post-imaging biodistribution of the radiotracer in mice was obtained at 30 h post-administration.

[2] = system: AR42J cells; assay: Cellular uptake of ^203Pb-labeled peptides; format: cell-based, rat; conditions: 2 h post-incubation
Protocol: PSCTOC and PSC-PEG2-TOC were labeled with ^203Pb and purified via HPLC for high molar activities as descibed in the Supplementary Material and in Li and collaborators. The HPLC-purified ^203Pb-labeled peptides (3.4 kBq) were incubated with AR42J cells in 24-well plates (pre-coated with poly-D-lysine), which were plated at a density of 2.0 × 10^5 cells 2 days prior, in the binding medium at 37 °C for up to 120 min. The cells were then washed twice and lysed, and the radioactivities of the samples were determined (n=3).

[3] = system: AR42J tumor xenograft; assay: In vivo biodistribution of ^203Pb-labeled peptides; parameters: species or system mice; conditions: DL-lysine 400 mg/kg, 3 h post-administration
Protocol: (§1) AR42J cells (5.0 × 10^6 cells/animal) were implanted subcutaneously on the left shoulder of female athymic nu/nu mice. […] Extra groups of mice were co-administered 37 kBq of ^203Pb-PSC-PEG2-TOC with DL-lysine (400 mg/kg) to determine the effect of amino acid on renal uptake of the radiopharmaceutical. Mice (n=3 per time point) were euthanized at 1, 3, and 24 h post-administration, and tumors and organs/tissues of interest were excised and weighed. The radioactivities of the samples were measured using the gamma counter.

[4] = In vivo biodistribution of ^203Pb-labeled peptides; parameters: species or system mice; conditions: female, athymic nu/nu, mouse, intravenous, total radioactivity
Protocol: as §1

## C[C@@H](O)[C@@H]1NC(=O)[C@H](CCCCN)NC(=O)[C@@H](Cc2c[nH]c3ccccc23)NC(=O)[C@H](Cc2ccc(O)cc2)NC(=O)[C@@H](NC(=O)[C@@H](Cc2ccccc2)NC(=O)CCOCCOCCNC(=O)CN2CCN(CC(=O)O)CCN(CC(N)=O)CCN(CC(=O)O)CC2)CSSC[C@@H](C(=O)N[C@H](CO)[C@@H](C)O)NC1=O [[^203Pb]Pb-PSC-PEG2-TOC, metal not drawn]
[1]
  Tumor uptake with co-administration of excessive unlabeled peptide: almost completely blocked
[2]
  Cellular uptake, factor vs. [^203Pb]Pb-PSCTOC: 4
  Cellular uptake, fold vs. [^203Pb]Pb-DOTATOC: 21 fold
[2]; 37 °C
  Cellular uptake: 18%
[3]
  Reduction of renal accumulation by co-administration of DL-lysine: 56%
[4]; blood, 37 kBq, 1 h post-administration, read-out: Blood
  tissue uptake at 1 h: 0.36 ± 0.1 %ID/g
[4]; blood, 37 kBq, 3 h (No Lys), Table S4 study, read-out: Blood
  tissue uptake at 3 h: 0.07 ± 0.02 %ID/g
[4]; blood, 37 kBq, 3 h post-administration, read-out: Blood
  tissue uptake at 3 h: 0.05 %ID/g
[4]; blood, 37 kBq, 24 h post-administration, read-out: Blood
  tissue uptake at 24 h: 0.02 %ID/g
[4]; blood, 1 h, DL-lysine co-administered, read-out: Blood
  tissue uptake at 1 h: 0.36 ± 0.15 %ID/g
[4]; blood, 3 h (Blocking): 10 nmol unlabeled PSC-PEG2-TOC co-administered, read-out: Blood
  tissue uptake at 3 h: 0.13 ± 0.02 %ID/g
[4]; blood, 3 h, DL-lysine co-administered, read-out: Blood
  tissue uptake at 3 h: 0.07 ± 0.02 %ID/g
[4]; blood, DL-lysine co-administered, read-out: Blood
  tissue uptake at 6 h: 0.05 ± 0.03 %ID/g
[4]; blood, 24 h, DL-lysine co-administered, read-out: Blood
  tissue uptake at 24 h: 0.01 %ID/g
[4]; bone marrow, 37 kBq, 3 h (No Lys), Table S4 study, read-out: Bone marrow
  tissue uptake at 3 h: 4.17 ± 1.51 %ID/g
[4]; bone marrow, 1 h, DL-lysine co-administered, read-out: Bone marrow
  tissue uptake at 1 h: 2.42 ± 0.32 %ID/g
[4]; bone marrow, 3 h (Blocking): 10 nmol unlabeled PSC-PEG2-TOC co-administered, read-out: Bone marrow
  tissue uptake at 3 h: 0.99 ± 0.42 %ID/g
[4]; bone marrow, 3 h, DL-lysine co-administered, read-out: Bone marrow
  tissue uptake at 3 h: 4.13 ± 1.55 %ID/g
[4]; bone marrow, DL-lysine co-administered, read-out: Bone marrow
  tissue uptake at 6 h: 1.69 ± 0.34 %ID/g
[4]; bone marrow, 24 h, DL-lysine co-administered, read-out: Bone marrow
  tissue uptake at 24 h: 0.87 ± 0.6 %ID/g
[4]; bone, 37 kBq, 3 h (No Lys), Table S4 study, read-out: Bone
  tissue uptake at 3 h: 0.62 ± 0.24 %ID/g
[4]; bone, 1 h, DL-lysine co-administered, read-out: Bone
  tissue uptake at 1 h: 1.48 ± 0.34 %ID/g
[4]; bone, 3 h (Blocking): 10 nmol unlabeled PSC-PEG2-TOC co-administered, read-out: Bone
  tissue uptake at 3 h: 0.16 ± 0.1 %ID/g
[4]; bone, 3 h, DL-lysine co-administered, read-out: Bone
  tissue uptake at 3 h: 0.48 ± 0.05 %ID/g
[4]; bone, DL-lysine co-administered, read-out: Bone
  tissue uptake at 6 h: 0.35 ± 0.06 %ID/g
[4]; bone, 24 h, DL-lysine co-administered, read-out: Bone
  tissue uptake at 24 h: 0.16 ± 0.04 %ID/g
[4]; brain, 37 kBq, 1 h post-administration, read-out: Brain
  tissue uptake at 1 h: 0.04 ± 0.01 %ID/g
[4]; brain, 37 kBq, 3 h (No Lys), Table S4 study, read-out: Brain
  tissue uptake at 3 h: 0.08 ± 0.06 %ID/g
[4]; brain, 37 kBq, 3 h post-administration, read-out: Brain
  tissue uptake at 3 h: 0.02 %ID/g
[4]; brain, 37 kBq, 24 h post-administration, read-out: Brain
  tissue uptake at 24 h: 0.01 %ID/g
[4]; brain, 1 h, DL-lysine co-administered, read-out: Brain
  tissue uptake at 1 h: 0.04 ± 0.01 %ID/g
[4]; brain, 3 h (Blocking): 10 nmol unlabeled PSC-PEG2-TOC co-administered, read-out: Brain
  tissue uptake at 3 h: 0.03 ± 0.01 %ID/g
[4]; brain, 3 h, DL-lysine co-administered, read-out: Brain
  tissue uptake at 3 h: 0.03 ± 0.01 %ID/g
[4]; brain, DL-lysine co-administered, read-out: Brain
  tissue uptake at 6 h: 0.02 %ID/g
[4]; brain, 24 h, DL-lysine co-administered, read-out: Brain
  tissue uptake at 24 h: 0.01 %ID/g
[4]; heart, 37 kBq, 1 h post-administration, read-out: Heart
  tissue uptake at 1 h: 0.2 ± 0.05 %ID/g
[4]; heart, 37 kBq, 3 h (No Lys), Table S4 study, read-out: Heart
  tissue uptake at 3 h: 0.2 ± 0.13 %ID/g
[4]; heart, 37 kBq, 3 h post-administration, read-out: Heart
  tissue uptake at 3 h: 0.08 ± 0.02 %ID/g
[4]; heart, 37 kBq, 24 h post-administration, read-out: Heart
  tissue uptake at 24 h: 0.03 ± 0.01 %ID/g
[4]; heart, 1 h, DL-lysine co-administered, read-out: Heart
  tissue uptake at 1 h: 0.28 ± 0.08 %ID/g
[4]; heart, 3 h (Blocking): 10 nmol unlabeled PSC-PEG2-TOC co-administered, read-out: Heart
  tissue uptake at 3 h: 0.07 ± 0.03 %ID/g
[4]; heart, 3 h, DL-lysine co-administered, read-out: Heart
  tissue uptake at 3 h: 0.15 ± 0.03 %ID/g
[4]; heart, DL-lysine co-administered, read-out: Heart
  tissue uptake at 6 h: 0.07 ± 0.05 %ID/g
[4]; heart, 24 h, DL-lysine co-administered, read-out: Heart
  tissue uptake at 24 h: 0.03 ± 0.01 %ID/g
[4]; kidneys, 37 kBq, 1 h post-administration, read-out: Kidneys
  tissue uptake at 1 h: 20.6 %ID/g
[4]; kidneys, 37 kBq, 3 h (No Lys), Table S4 study, read-out: Kidneys
  tissue uptake at 3 h: 22.1 ± 1.92 %ID/g
[4]; kidneys, 37 kBq, 3 h post-administration, read-out: Kidneys
  tissue uptake at 3 h: 15.8 ± 1.11 %ID/g
[4]; kidneys, 37 kBq, 24 h post-administration, read-out: Kidneys
  tissue uptake at 24 h: 1.5 %ID/g
[4]; kidneys, 1 h, DL-lysine co-administered, read-out: Kidneys
  tissue uptake at 1 h: 13.3 ± 3.8 %ID/g
[4]; kidneys, 3 h (Blocking): 10 nmol unlabeled PSC-PEG2-TOC co-administered, read-out: Kidneys
  tissue uptake at 3 h: 40.9 ± 9.92 %ID/g
[4]; kidneys, 3 h, DL-lysine co-administered, read-out: Kidneys
  tissue uptake at 3 h: 9.84 ± 0.88 %ID/g
[4]; kidneys, DL-lysine co-administered, read-out: Kidneys
  tissue uptake at 6 h: 5.44 ± 0.63 %ID/g
[4]; kidneys, 24 h, DL-lysine co-administered, read-out: Kidneys
  tissue uptake at 24 h: 1.25 ± 0.86 %ID/g
[4]; large intestine, 37 kBq, 1 h post-administration, read-out: Large intestine
  tissue uptake at 1 h: 1.24 ± 0.12 %ID/g
[4]; large intestine, 37 kBq, 3 h (No Lys), Table S4 study, read-out: Large intestine
  tissue uptake at 3 h: 1.92 ± 0.56 %ID/g
[4]; large intestine, 37 kBq, 3 h post-administration, read-out: Large intestine
  tissue uptake at 3 h: 6.32 ± 0.68 %ID/g
[4]; large intestine, 37 kBq, 24 h post-administration, read-out: Large intestine
  tissue uptake at 24 h: 0.83 ± 0.45 %ID/g
[4]; large intestine, 1 h, DL-lysine co-administered, read-out: Large intestine
  tissue uptake at 1 h: 1.99 ± 0.31 %ID/g
[4]; large intestine, 3 h (Blocking): 10 nmol unlabeled PSC-PEG2-TOC co-administered, read-out: Large intestine
  tissue uptake at 3 h: 0.99 ± 0.46 %ID/g
[4]; large intestine, 3 h, DL-lysine co-administered, read-out: Large intestine
  tissue uptake at 3 h: 3.97 ± 0.97 %ID/g
[4]; large intestine, DL-lysine co-administered, read-out: Large intestine
  tissue uptake at 6 h: 3.34 ± 0.63 %ID/g
[4]; large intestine, 24 h, DL-lysine co-administered, read-out: Large intestine
  tissue uptake at 24 h: 1.01 ± 0.67 %ID/g
[4]; liver, 37 kBq, 1 h post-administration, read-out: Liver
  tissue uptake at 1 h: 0.36 ± 0.05 %ID/g
[4]; liver, 37 kBq, 3 h (No Lys), Table S4 study, read-out: Liver
  tissue uptake at 3 h: 0.31 ± 0.03 %ID/g
[4]; liver, 37 kBq, 3 h post-administration, read-out: Liver
  tissue uptake at 3 h: 0.23 ± 0.02 %ID/g
[4]; liver, 37 kBq, 24 h post-administration, read-out: Liver
  tissue uptake at 24 h: 0.08 ± 0.04 %ID/g
[4]; liver, 1 h, DL-lysine co-administered, read-out: Liver
  tissue uptake at 1 h: 0.44 ± 0.08 %ID/g
[4]; liver, 3 h (Blocking): 10 nmol unlabeled PSC-PEG2-TOC co-administered, read-out: Liver
  tissue uptake at 3 h: 0.3 ± 0.07 %ID/g
[4]; liver, 3 h, DL-lysine co-administered, read-out: Liver
  tissue uptake at 3 h: 0.25 ± 0.05 %ID/g
[4]; liver, DL-lysine co-administered, read-out: Liver
  tissue uptake at 6 h: 0.17 ± 0.02 %ID/g
[4]; liver, 24 h, DL-lysine co-administered, read-out: Liver
  tissue uptake at 24 h: 0.06 ± 0.01 %ID/g

From paper PMC10881741, “Structural modifications toward improved lead-203/lead-212 peptide-based image-guided alpha-particle radiopharmaceutical therapies for neuroendocrine tumors” (European Journal of Nuclear Medicine and Molecular Imaging, 2023)
